Results taken from PMC7090148 (2020).

B1: Mouse OFD1, wild type [mouse] / NTAP-tagged TRAPPC12 [mouse] (parent complex)
chain 1: MAQSNMPHKSDVLSQDELRKKLYQTFKDRGVLDTLQTQLRNQLIHELMHPVLSGEVKPPSISVEGSALLIGASNSLVADHLQRCGYEYSLSVFFPESGLAKEKIFTMQDLLQLIRINPSSSLYKSLISGFDKENKKGFLMSFLKELAEYYQAKESCDAETQTSTTFPSQVSLAEKFQLIDAQFADGFPHRSKLESLETKLNEYKKEVQHQLQVEMCHKLKYFREAEITKVKMEERRKYEKELAEFQNEFERTCQAKNEALISQEKNSLERIKKHREMESKEIYAQRQLLLNDIALLRGREAELKERIETFELTQKLQEEKIKSEAEALERREQNLKNIEDTYDQKLKTELLKYQLELKDDYITRTNKLLEEERKNKEKTIHLQEELTVINSKKEELSKSVKHMKEVELELESVKAQFLAISKQNHLLNEKVREMSDYSQLKEEKVELQAQNKLLKLQLEETRNENLRLLDRITQPPPELVIFQKELQKTEKAMELEHKDFETHRQALEKQLQSEIENSAQLRTQIAEYDASVKRLTVQVAELKSQLKQTQIALENEVYRNPKHSLIHSLSGLLLSGKMAPHSEDKSGDFLNVPLEQNKVIAGAVMSRVPPYVNTATEASSPESDFEFIASSTKAKVRELEQEAERLEKAFRTYYQRATQNPSTSPQPAKSPPSVNSVAALRSIASSSMDRPVSAEDRVVSEQPLGDMLKEEMSDMSKAFMGSVVSRPRRTSSSTRLSSTPHPKSRRSLDNEMYLEGLGRLHMTSSSPLLDRVSASPAASPSPCPERTAQASPVPSRHSFSGLPEQNACLYQRQTETQDKSELSNVDKQSLKDEKFEPPFRWNKTEQFEAEGLHPAGDMPGIDFAVATQSSRLISYDYPSAVQSQTGEQDEQELWELHMKERRQREEQRHNERQEALERERRELGKLEQERRMIEESLKMEMEEELEKSVQDQKDKSAHCENTLEKYMKIIQQRQEESNADKSSKKSGKECSLVDMMMPSDKDESSPGFSHEEPDDMW
chain 2: METAKDGEQSPSEASPSAQAGPENIPEPMSREEESQPLYHEETIDLGGDEFASEENEPTSEGSHNFGDKLNEHMMESVLISDSPNNSEGDVGDLGCLQDVGEPPRGATDHRLPSSTDKEVVDTLSNGSETDGDDTPRDISDMTPDSRASLKEDSTQEDVTSMPALENAATEEVGPKDSLAPREEQTSEVSSNQSSSKDEPLPVCTIFSQATATPSQPHLFLQDGFESQMVKSPSFSSTSETSAKTPPPMVQPSPSLSTFFGDTMSSNSLASDFFDSFTTSTFISVSNPNAGSPVPEKLSSLTAPVGEKSPDSTSPSYSTRMDRSESGVSRAPLDVPESPKPFSQIQAVFAGSDDPFATALSMSEMDRRNDAWLPSQATREVLMSVATQQYGTVFIDKENLTMPGLKFDNIQGDAVKDLMLRFLGEKAAAKRQVLNASSVEQSFVGLKQLISCRNWRAAVDLCGRLLTAHGQGYGKNGLPTSHTTDSLQLWFVRLALLVKLGLFQNAEMEFEPFGNLDQPDLYYEYYPHVYPGRRGSMVPFSMRILHAELQQYLGNPQESLDRLHRVKTVCSKILANLEQGLAEDGGLSSVTQESRQASVQLWRSRLGRVLYSMANCLLLMKDYVLAVDAYLTVIKYYPEQEPQLLSGIGRILLQIGDIKTAEKYFQDVEKVTQKLDGLQGKIMVLMNRAFLYLGQNNFAEAHKFFTEILRMDPTNAVANNNAAVCLLYLGKLKDSLRQLEAMVQQDPRHYLHESVLFNLTTMYELESSRSMQKKQSLLEAVASKEGDSFNTQCLKLA

Variants of: B1
Experiment: co-IP (IP: anti-Myc, immunoblot); IP: anti-Myc; 0.5% input; parent: 1

Row | Variant | ratio to parent
1 | chain 1 G137S | 0.91
2 | chain 1 S73F | 0.39

Second part, the variant after the results:

Row | ratio to parent | Variant
3 | 0.97 | chain 1 A78T
4 | 0.98 | chain 1 S435R
